Experimental data as given in patent US20110263454A1, “Methods of Identifying Functional Characteristics of Promoters, Transcription Modifying Proteins and Transcription Modulating Agents” (Salk Institute for Biological Studies, priority 2008, published 2011).

B1: CTF3: COUP-TF3 (NR2F6), cDNA driver (protein, UniProt P10588 1-404, looked up)
Nuclear receptor subfamily 2 …: MAMVTGGWGGPGGDTNGVDKAGGYPRAAEDDSASPPGAASDAEPGDEERPGLQVDCVVCGDKSSGKHYGVFTCEGCKSFFKRSIRRNLSYTCRSNRDCQIDQHHRNQCQYCRLKKCFRVGMRKEAVQRGRIPHSLPGAVAASSGSPPGSALAAVASGGDLFPGQPVSELIAQLLRAEPYPAAAGRFGAGGGAAGAVLGIDNVCELAARLLFSTVEWARHAPFFPELPVADQVALLRLSWSELFVLNAAQAALPLHTAPLLAAAGLHAAPMAAERAVAFMDQVRAFQEQVDKLGRLQVDSAEYGCLKAIALFTPDACGLSDPAHVESLQEKAQVALTEYVRAQYPSQPQRFGRLLLRLPALRAVPASLISQLFFMRLVGKTPIETLIRDMLLSGSTFNWPYGSGQ
B2: hMR: Mineralocorticoid Receptor (NR3C2, MR), cDNA driver (protein, UniProt P08235 1-984, looked up)
Mineralocorticoid receptor: METKGYHSLPEGLDMERRWGQVSQAVERSSLGPTERTDENNYMEIVNVSCVSGAIPNNSTQGSSKEKQELLPCLQQDNNRPGILTSDIKTELESKELSATVAESMGLYMDSVRDADYSYEQQNQQGSMSPAKIYQNVEQLVKFYKGNGHRPSTLSCVNTPLRSFMSDSGSSVNGGVMRAVVKSPIMCHEKSPSVCSPLNMTSSVCSPAGINSVSSTTASFGSFPVHSPITQGTPLTCSPNVENRGSRSHSPAHASNVGSPLSSPLSSMKSSISSPPSHCSVKSPVSSPNNVTLRSSVSSPANINNSRCSVSSPSNTNNRSTLSSPAASTVGSICSPVNNAFSYTASGTSAGSSTLRDVVPSPDTQEKGAQEVPFPKTEEVESAISNGVTGQLNIVQYIKPEPDGAFSSSCLGGNSKINSDSSFSVPIKQESTKHSCSGTSFKGNPTVNPFPFMDGSYFSFMDDKDYYSLSGILGPPVPGFDGNCEGSGFPVGIKQEPDDGSYYPEASIPSSAIVGVNSGGQSFHYRIGAQGTISLSRSARDQSFQHLSSFPPVNTLVESWKSHGDLSSRRSDGYPVLEYIPENVSSSTLRSVSTGSSRPSKICLVCGDEASGCHYGVVTCGSCKVFFKRAVEGQHNYLCAGRNDCIIDKIRRKNCPACRLQKCLQAGMNLGARKSKKLGKLKGIHEEQPQQQQPPPPPPPPQSPEEGTTYIAPAKEPSVNTALVPQLSTISRALTPSPVMVLENIEPEIVYAGYDSSKPDTAENLLSTLNRLAGKQMIQVVKWAKVLPGFKNLPLEDQITLIQYSWMCLSSFALSWRSYKHTNSQFLYFAPDLVFNEEKMHQSAMYELCQGMHQISLQFVRLQLTFEEYTIMKVLLLLSTIPKDGLKSQAAFEEMRTNYIKELRKMVTKCPNNSGQSWQRFYQLTKLLDSMHDLVSDLLEFCFYTFRESHALKVEFPAMLVEIISDQLPKVESGNAKPLYFHRK
B3: PR: Progesterone Receptor (NR3C3), cDNA driver (protein, UniProt P06401 1-933, looked up)
Progesterone receptor: MTELKAKGPRAPHVAGGPPSPEVGSPLLCRPAAGPFPGSQTSDTLPEVSAIPISLDGLLFPRPCQGQDPSDEKTQDQQSLSDVEGAYSRAEATRGAGGSSSSPPEKDSGLLDSVLDTLLAPSGPGQSQPSPPACEVTSSWCLFGPELPEDPPAAPATQRVLSPLMSRSGCKVGDSSGTAAAHKVLPRGLSPARQLLLPASESPHWSGAPVKPSPQAAAVEVEEEDGSESEESAGPLLKGKPRALGGAAAGGGAAAVPPGAAAGGVALVPKEDSRFSAPRVALVEQDAPMAPGRSPLATTVMDFIHVPILPLNHALLAARTRQLLEDESYDGGAGAASAFAPPRSSPCASSTPVAVGDFPDCAYPPDAEPKDDAYPLYSDFQPPALKIKEEEEGAEASARSPRSYLVAGANPAAFPDFPLGPPPPLPPRATPSRPGEAAVTAAPASASVSSASSSGSTLECILYKAEGAPPQQGPFAPPPCKAPGASGCLLPRDGLPSTSASAAAAGAAPALYPALGLNGLPQLGYQAAVLKEGLPQVYPPYLNYLRPDSEASQSPQYSFESLPQKICLICGDEASGCHYGVLTCGSCKVFFKRAMEGQHNYLCAGRNDCIVDKIRRKNCPACRLRKCCQAGMVLGGRKFKKFNKVRVVRALDAVALPQPVGVPNESQALSQRFTFSPGQDIQLIPPLINLLMSIEPDVIYAGHDNTKPDTSSSLLTSLNQLGERQLLSVVKWSKSLPGFRNLHIDDQITLIQYSWMSLMVFGLGWRSYKHVSGQMLYFAPDLILNEQRMKESSFYSLCLTMWQIPQEFVKLQVSQEEFLCMKVLLLLNTIPLEGLRSQTQFEEMRSSYIRELIKAIGLRQKGVVSSSQRFYQLTKLLDNLHDLVKQLHLYCLNTFIQSRALSVEFPEMMSEVIAAQLPKILAGMVKPLLFHKK

Experiments:
mGhrelin promoter = test: NHR-promoter luciferase screen, mGhrelin promoter; format: cell-based, mouse; conditions: for Luc. act., normalized to lacZ / Normalized Luc. act., normalized to control: Table 8, mGhrelin; for Results of assays of transcription factor (+/- ligand) with mGhrelin: Table 6d, luciferase activity relative to control (control = 1.00)
In short: (§1)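 CV-1 cells were co-transfected with 50 ng NHR (homodimer or NHR/RXR heterodimer), 100 ng promoter-luciferase construct and 50 ng LacZ. Luciferase was normalized to LacZ and to a no-NHR/no-ligand control.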

mLeptin promoter = test: NHR-promoter luciferase screen, mLeptin promoter; format: cell-based, mouse; conditions: for Luc. act., normalized to lacZ / Normalized Luc. act., normalized to control: Table 7, mLeptin; for Results of assays of transcription factor (+/- ligand) with mLeptin: Table 6d, luciferase activity relative to control (control = 1.00)
In short: as §1

mPOMC promoter = test: NHR-promoter luciferase screen, mPOMC promoter; format: cell-based, mouse; conditions: for Results of assays of transcription factor (+/- ligand) with mPOMC: Table 6d, luciferase activity relative to control (control = 1.00); for Luc. act., normalized to lacZ / Normalized Luc. act., normalized to control: mPOMC promoter, HR component with or without ligand; for Normalized Luc. act., normalized to control: relative to control
In short: as §1

mUCP3 promoter = test: NHR-promoter luciferase screen, mUCP3 promoter; format: cell-based, mouse; conditions: for Normalized Luc. act., normalized to control / Luc. act., normalized to lacZ: mUCP3 promoter reporter; for Normalized Luc. act., normalized to control: HR without or with its ligand, relative to control; for Luc. act., normalized to lacZ: hormone receptor (HR) without or with its ligand; for mUCP3 promoter reporter activity: transcription factor +/- ligand, control = 1.00
In short: as §1

hIRF7 promoter = test: NHR-promoter luciferase screen, hIRF7 promoter; format: cell-based, human; conditions: for Normalized Luc. act., normalized to control / Luc. act., normalized to lacZ: IRF7 promoter reporter; for Normalized Luc. act., normalized to control: HR without or with its ligand, relative to control; for Luc. act., normalized to lacZ: hormone receptor (HR) without or with its ligand; for hIRF7 promoter reporter activity: transcription factor +/- ligand, control = 1.00
In short: as §1

hPPARg1 promoter = test: NHR-promoter luciferase screen, hPPARg1 promoter; format: cell-based, human; conditions: for Luc. act., normalized to lacZ / Normalized Luc. act., normalized to control: PPARG1 promoter, hormone receptor with or without its ligand; for Normalized Luc. act., normalized to control: relative to control; for Results of assays of transcription factor (+/- ligand) with hPPARg1: Table 6d, luciferase activity relative to control (control = 1.00)
In short: as §1

Molecule | Luc. act., normalized to lacZ (mGhrelin promoter) | Normalized Luc. act., normalized to control (mGhrelin promoter) | Results of assays of transcription factor (+/- ligand) with mGhrelin (mGhrelin promoter) | Luc. act., normalized to lacZ (mLeptin promoter) | Normalized Luc. act., normalized to control (mLeptin promoter) | Results of assays of transcription factor (+/- ligand) with mLeptin (mLeptin promoter) | Results of assays of transcription factor (+/- ligand) with mPOMC (mPOMC promoter) | Luc. act., normalized to lacZ (mPOMC promoter) | Normalized Luc. act., normalized to control (mPOMC promoter) | Normalized Luc. act., normalized to control (mUCP3 promoter) | Luc. act., normalized to lacZ (mUCP3 promoter) | mUCP3 promoter reporter activity (mUCP3 promoter) | Normalized Luc. act., normalized to control (hIRF7 promoter) | Luc. act., normalized to lacZ (hIRF7 promoter) | hIRF7 promoter reporter activity (hIRF7 promoter) | Luc. act., normalized to lacZ (hPPARg1 promoter) | Normalized Luc. act., normalized to control (hPPARg1 promoter) | Results of assays of transcription factor (+/- ligand) with hPPARg1 (hPPARg1 promoter)
B1 | 68.4 | 1.3 | 1.31 | 2.7 | 0.9 | 0.92 | 0.75 | 51.8 | 0.8 | 0.8 | 0.6 | 0.82 | 1.0 | 25.5 | 0.97 | 32.5 | 0.5 | 0.47
B2 | 49.7 | 1.0 | 0.95 | 1.7 | 0.6 | 0.57 | 0.73 | 50.3 | 0.7 | 0.7 | 0.50 | 0.74 | 0.8 | 21.1 | 0.80 | 56.4 | 0.8 | 0.82
B3 | 53.6 | 1.0 | 1.03 | 2.2 | 0.8 | 0.76 | 1.10 | 75.8 | 1.1 | 1.3 | 0.86 | 1.27 | 1.3 | 33.0 | 1.25 | 81.3 | 1.2 | 1.18
